Key:
[1] = molecular target: T1, rat acid-sensing ion channel 1a (rat) (UniProt P55926)
T1 sequence: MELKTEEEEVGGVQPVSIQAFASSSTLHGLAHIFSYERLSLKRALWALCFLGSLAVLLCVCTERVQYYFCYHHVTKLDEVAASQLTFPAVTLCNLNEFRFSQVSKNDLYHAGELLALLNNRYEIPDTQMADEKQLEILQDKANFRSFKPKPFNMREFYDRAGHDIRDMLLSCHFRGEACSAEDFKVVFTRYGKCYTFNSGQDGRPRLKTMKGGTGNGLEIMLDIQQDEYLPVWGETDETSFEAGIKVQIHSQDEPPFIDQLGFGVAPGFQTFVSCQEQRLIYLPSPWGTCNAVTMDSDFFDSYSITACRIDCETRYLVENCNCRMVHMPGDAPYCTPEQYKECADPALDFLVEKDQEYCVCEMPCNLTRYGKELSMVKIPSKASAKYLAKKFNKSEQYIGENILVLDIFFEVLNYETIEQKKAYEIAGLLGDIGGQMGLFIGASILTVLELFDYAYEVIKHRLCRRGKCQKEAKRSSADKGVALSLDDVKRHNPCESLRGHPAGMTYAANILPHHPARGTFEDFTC

[2] = molecular target: T2, human acid-sensing ion channel 1a (human) (UniProt P78348)
T2 sequence: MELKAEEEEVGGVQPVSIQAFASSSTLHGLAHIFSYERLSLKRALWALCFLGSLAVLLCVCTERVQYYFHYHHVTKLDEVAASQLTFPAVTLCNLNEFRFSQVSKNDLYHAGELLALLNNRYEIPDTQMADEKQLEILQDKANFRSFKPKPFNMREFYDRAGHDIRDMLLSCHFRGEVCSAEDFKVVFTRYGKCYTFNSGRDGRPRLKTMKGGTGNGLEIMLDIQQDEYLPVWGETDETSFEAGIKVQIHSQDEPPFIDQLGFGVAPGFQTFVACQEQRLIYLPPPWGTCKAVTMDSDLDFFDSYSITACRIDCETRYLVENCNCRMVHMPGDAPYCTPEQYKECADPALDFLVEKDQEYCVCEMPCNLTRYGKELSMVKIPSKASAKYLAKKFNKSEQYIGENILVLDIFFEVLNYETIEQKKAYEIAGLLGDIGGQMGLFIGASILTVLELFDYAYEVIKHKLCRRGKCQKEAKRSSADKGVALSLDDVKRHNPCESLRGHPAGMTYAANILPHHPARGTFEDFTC

[3] = molecular target: T3, rat acid-sensing ion channel 1b (rat)
T3 sequence (P55926 whole entry, looked up): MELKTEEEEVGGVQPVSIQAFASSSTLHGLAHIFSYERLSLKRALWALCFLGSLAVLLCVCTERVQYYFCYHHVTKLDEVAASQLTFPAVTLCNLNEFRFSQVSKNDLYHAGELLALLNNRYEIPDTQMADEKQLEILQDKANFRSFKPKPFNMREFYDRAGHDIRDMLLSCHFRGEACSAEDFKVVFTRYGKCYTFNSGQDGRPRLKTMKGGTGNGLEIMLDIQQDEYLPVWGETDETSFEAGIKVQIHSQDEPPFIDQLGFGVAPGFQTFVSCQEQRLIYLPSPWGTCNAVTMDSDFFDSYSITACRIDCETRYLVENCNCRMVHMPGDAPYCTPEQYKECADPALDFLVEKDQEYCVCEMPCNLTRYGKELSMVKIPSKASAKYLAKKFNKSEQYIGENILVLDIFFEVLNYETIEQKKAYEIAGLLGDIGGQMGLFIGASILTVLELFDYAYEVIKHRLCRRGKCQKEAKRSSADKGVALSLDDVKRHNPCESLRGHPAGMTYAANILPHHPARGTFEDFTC

[4] = molecular target: T3, rat acid-sensing ion channel 1b (rat); remark: listed apart in the source
[5] = molecular target: T4, rASIC1a S83T/Q84E/R175C/E177G (rat) (UniProt P55926)
T4 sequence: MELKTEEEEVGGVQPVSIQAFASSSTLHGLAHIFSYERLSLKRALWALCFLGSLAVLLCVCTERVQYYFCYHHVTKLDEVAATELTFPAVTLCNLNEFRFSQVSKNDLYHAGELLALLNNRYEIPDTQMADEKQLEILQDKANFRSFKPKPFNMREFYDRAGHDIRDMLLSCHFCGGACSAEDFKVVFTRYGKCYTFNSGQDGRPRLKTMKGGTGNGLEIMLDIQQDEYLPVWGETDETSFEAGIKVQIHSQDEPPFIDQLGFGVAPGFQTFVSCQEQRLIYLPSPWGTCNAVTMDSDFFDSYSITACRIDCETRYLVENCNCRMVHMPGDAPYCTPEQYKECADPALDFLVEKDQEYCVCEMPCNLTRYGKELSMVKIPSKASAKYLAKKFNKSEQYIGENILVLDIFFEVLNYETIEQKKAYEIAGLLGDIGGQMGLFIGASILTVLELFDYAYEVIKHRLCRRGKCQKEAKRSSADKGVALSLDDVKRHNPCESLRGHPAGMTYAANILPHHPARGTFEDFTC

[6] = molecular target: T2, human acid-sensing ion channel 1a (human); remark: listed apart in the source
rASIC1a E362R (rat) = molecular target: T5, rASIC1a E362R (rat) (UniProt P55926)
T5 sequence: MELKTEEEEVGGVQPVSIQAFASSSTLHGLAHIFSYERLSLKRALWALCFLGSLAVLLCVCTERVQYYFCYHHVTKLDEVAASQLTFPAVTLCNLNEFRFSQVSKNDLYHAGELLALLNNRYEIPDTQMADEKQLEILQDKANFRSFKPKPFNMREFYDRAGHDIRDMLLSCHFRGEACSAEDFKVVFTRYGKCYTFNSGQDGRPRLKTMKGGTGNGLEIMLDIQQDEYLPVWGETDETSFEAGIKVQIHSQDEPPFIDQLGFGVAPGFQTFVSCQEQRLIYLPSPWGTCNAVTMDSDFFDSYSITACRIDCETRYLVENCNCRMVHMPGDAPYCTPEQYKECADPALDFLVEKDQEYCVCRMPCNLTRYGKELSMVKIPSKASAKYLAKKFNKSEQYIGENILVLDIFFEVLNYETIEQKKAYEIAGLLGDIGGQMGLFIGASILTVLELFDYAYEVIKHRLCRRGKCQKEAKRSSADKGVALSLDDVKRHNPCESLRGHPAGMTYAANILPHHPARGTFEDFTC

[7] = molecular target: rASIC1b T128S/E129Q/C208R/G210E (rat)
[8] = molecular target: T1, rat acid-sensing ion channel 1a (rat); remark: listed apart in the source
[9] = molecular target: T3, rat acid-sensing ion channel 1b (rat); remark: listed apart in the source

With Ma-3 K8A (peptide) the fold loss of potency of current inhibition against wild-type Ma-3 (conditioning pH 7.45, stimulus pH 6) [1] was 4 fold, the fold loss of potency of current inhibition against wild-type Ma-3 (conditioning pH 7.45, stimulus pH 6) [2] was 4 fold and the fold loss of potency of current inhibition against wild-type Ma-3 (conditioning pH 7.45, stimulus pH 6) [3] was > 30 fold. For the same molecule, the I/I (control) of pH 6-evoked currents with 300 nM peptide (I/I (control)) [4] was 0.91 and the I/I (control) of pH 6-evoked currents with 300 nM peptide (I/I (control)) [5] was 0.65.

B1: mambalgin-3 (peptide)
chain: SLKCYQHGKVVTCHRDMKFCYHNIGMPFRNLKLILQGCSSSCSETENNKCCSTDRCNK
In the case of B1, the IC50 of inhibition of pH 6-evoked currents (two-electrode voltage clamp, Xenopus oocytes, conditioning pH 7.45) [6] is reported as 25 nM, the concentration-response of inhibition of pH 6-evoked currents (conditioning pH 7.45); fold change against wild-type rASIC1a (rASIC1a E362R (rat)) is reported as 5 fold and the I/I (control) of pH 6-evoked currents with 300 nM peptide (I/I (control)) [4] is reported as 0.4. It also gave an I/I (control) of pH 6-evoked currents with 300 nM peptide (I/I (control)) [5] of 0.48, an IC50 of inhibition of pH 6-evoked currents (conditioning pH 7.45) [7] of 18.5 nM and an IC50 of inhibition of pH 6-evoked currents (two-electrode voltage clamp, Xenopus oocytes, conditioning pH 7.45) [8] of 3.9 nM. It also gave an IC50 of inhibition of pH 6-evoked currents (two-electrode voltage clamp, Xenopus oocytes, conditioning pH 7.45) [9] of 38.3 nM and a maximal inhibition of pH 6-evoked currents at saturating Ma-3 [9] of 60%.

— paper PMC11335189, “Revealing molecular determinants governing mambalgin-3 pharmacology at acid-sensing ion channel 1 variants” (Cellular and Molecular Life Sciences: CMLS, 2024)
